From paper PMC8151308

Molecular target: LEL CD81-SA labelled with Cy3 (UniProt P60033)
Experiment: dynamic light scattering + other: nanoparticle tracking analysis; nanotraps (LEL CD81-SA-Cy3 on PEG-b-PLA nanoparticles, 0.50 mg/mL) mixed with HC VMPs (E2-GFP on PEG-b-PLA nanoparticles, 0.15 mg/mL) in 0.01 M sodium phosphate buffer pH 7.4, 25 °C; aggregation monitored after 5, 10, 20 and 30 min

Substance “chimeric E2 core-GFP protein (E2 core, 412-645 a.a., of hepatitis C virus fused with superfolder GFP) (from UniProt P27958 412-645) (domain or fragment)” has a percentage of aggregates (DLS, after 30 min) of 33%.
